The assay addresses TaCDC48-L745W (W466F, W541Y, L745W) (T. acidophilum, UniProt O05209 1-745, W466F | W541Y | L745W). Kind of assay: tryptophan fluorescence shift.

TaCDC48-L745W (W466F, W541Y, L745W), sequence (O05209 whole entry W466F/W541Y/L745W): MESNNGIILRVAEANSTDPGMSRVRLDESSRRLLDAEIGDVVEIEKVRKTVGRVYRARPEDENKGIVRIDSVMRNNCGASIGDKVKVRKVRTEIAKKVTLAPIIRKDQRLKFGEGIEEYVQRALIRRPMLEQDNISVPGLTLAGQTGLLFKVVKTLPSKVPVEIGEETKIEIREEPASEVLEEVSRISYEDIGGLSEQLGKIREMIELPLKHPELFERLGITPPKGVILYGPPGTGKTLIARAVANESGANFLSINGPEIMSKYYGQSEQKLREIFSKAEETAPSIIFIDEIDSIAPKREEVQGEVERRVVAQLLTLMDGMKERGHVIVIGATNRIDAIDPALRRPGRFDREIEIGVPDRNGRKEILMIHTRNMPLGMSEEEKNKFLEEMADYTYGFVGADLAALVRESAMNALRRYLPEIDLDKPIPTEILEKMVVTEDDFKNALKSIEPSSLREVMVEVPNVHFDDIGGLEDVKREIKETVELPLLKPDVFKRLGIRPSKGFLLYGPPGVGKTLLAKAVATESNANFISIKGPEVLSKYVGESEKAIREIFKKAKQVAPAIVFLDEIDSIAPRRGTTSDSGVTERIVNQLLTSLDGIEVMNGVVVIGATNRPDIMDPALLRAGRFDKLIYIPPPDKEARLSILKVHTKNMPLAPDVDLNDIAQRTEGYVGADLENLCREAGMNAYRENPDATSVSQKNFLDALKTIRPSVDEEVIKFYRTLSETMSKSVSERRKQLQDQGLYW

B1: Thermoplasma acidophilum 20S proteasome core particle, recombinant (complex, T. acidophilum)
chain 1: MQQGQMAYDRAITVFSPDGRLFQVEYAREAVKKGSTALGMKFANGVLLISDKKVRSRLIEQNSIEKIQLIDDYVAAVTSGLVADARVLVDFARISAQQEKVTYGSLVNIENLVKRVADQMQQYTQYGGVRPYGVSLIFAGIDQIGPRLFDCDPAGTINEYKATAIGSGKDAVVSFLEREYKENLPEKEAVTLGIKALKSSLEEGEELKAPEIASITVGNKYRIYDQEEVKKFL
chain 2: TTTVGITLKDAVIMATERRVTMENFIMHKNGKKLFQIDTYTGMTIAGLVGDAQVLVRYMKAELELYRLQRRVNMPIEAVATLLSNMLNQVKYMPYMVQLLVGGIDTAPHVFSIDAAGGSVEDIYASTGSGSPFVYGVLESQYSEKMTVDEGVDLVIRAISAAKQRDSASGGMIDVAVITRKDGYVQLPTDQIESRIRKLGLIL
For the molecule B1, the binding result was “binds”.

These data come from publication PMC3493965 (The Journal of Biological Chemistry, 2012).
